Measurements reported in article PMC8173005.

Assays:
[1] = target: staphylococcal protein A ligand of the BabyBio A column (Bio-Works) (staphylococcal (so in the source)); experiment: affinity chromatography; dynamic binding capacity at 10% breakthrough; 1 mL columns of peptide-coupled agarose or BabyBio A; 1 mg/mL infliximab in 0.01% PBST pH 7.4 loaded at 0.5 mL/min; elution with 20 mM glycine-HCl pH 3.0 (peptide resins) or 100 mM Na-citrate pH 3.0 (BabyBio A)
[2] = target: polyclonal human IgG (Octagam, Octapharma) (human); experiment: ELISA; phage ELISA; MaxiSorp wells coated with human polyclonal IgG (Octagam, 5 µg/mL), blocked with skimmed milk; peptide-displaying phagemid virions in solution, 2 × 10^9 virions per well or serial dilutions from 2.5 × 10^10 to 1.95 × 10^8 virions per well; detection with HRP-conjugated anti-M13 antibody and TMB; triplicate

## infliximab (Remsima, Celltrion) (antibody)
[1]
  amount of infliximab in the eluate: 41.2 mg
  dynamic binding capacity at 10% breakthrough: 41.3 mg/mL

## GSYWYNVWF [peptide A displayed on pIT2-SL phagemid virions]
[2]
  fold higher estimated affinity than the parent peptide min19Fc-Q6D: 16 fold
